Measurements: the supplement of paper PMC9112550, “Optimization of the antimicrobial peptide Bac7 by deep mutational scanning” (BMC Biology, 2022)

System: Escherichia coli TOP10
Experiment: shrunken log2 fold change of peptide-encoding DNA abundance (4.5 h post-induction vs induction); higher = less antimicrobial activity (less host growth inhibition)
Conditions: time post-induction: 4.5 h; library: site-saturation at positions 5, 18, 19, 20
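Also: peptides expressed intracellularly from a pBAD plasmid library in pooled LB shake-flask culture, induced with 0.3% L-arabinose, DNA abundance read by NGS, three biological replicates, DESeq2 with apeglm shrinkage.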

Sequence	shrunken log2 fold change
RRIRQRPPRLPRPRPRPDKAPRP	0.517
RRIRQRPPRLPRPRPRPDKVPRP	-0.0238
RRIRQRPPRLPRPRPRPDLNPRP	0.0947
RRIRQRPPRLPRPRPRPDMFPRP	0.0212
RRIRQRPPRLPRPRPRPDMYPRP	0.0381
RRIRQRPPRLPRPRPRPDNMPRP	-0.163
RRIRQRPPRLPRPRPRPDNSPRP	-0.0422
RRIRQRPPRLPRPRPRPDNTPRP	-0.178
RRIRQRPPRLPRPRPRPDPFPRP	-0.401
RRIRQRPPRLPRPRPRPDQDPRP	0.192
RRIRQRPPRLPRPRPRPDQQPRP	0.0334
RRIRQRPPRLPRPRPRPDQTPRP	-0.0116
RRIRQRPPRLPRPRPRPDQYPRP	-0.0114
RRIRQRPPRLPRPRPRPDRQPRP	0.0104
RRIRQRPPRLPRPRPRPDSCPRP	0.0169
RRIRQRPPRLPRPRPRPDSQPRP	0.0234
RRIRQRPPRLPRPRPRPDTAPRP	-0.0746
RRIRQRPPRLPRPRPRPDVKPRP	-0.0135
RRIRQRPPRLPRPRPRPDWGPRP	-0.0197
RRIRQRPPRLPRPRPRPDWIPRP	-0.035
RRIRQRPPRLPRPRPRPDWVPRP	0.116
RRIRQRPPRLPRPRPRPDYNPRP	-0.161
RRIRQRPPRLPRPRPRPECCPRP	0.267
RRIRQRPPRLPRPRPRPECSPRP	-0.0561
RRIRQRPPRLPRPRPRPECWPRP	0.358

Sequence	shrunken log2 fold change
RRIRQRPPRLPRPRPRPEDCPRP	0.0138
RRIRQRPPRLPRPRPRPEENPRP	0.00965
RRIRQRPPRLPRPRPRPEFGPRP	-0.0374
RRIRQRPPRLPRPRPRPEFLPRP	0.025
RRIRQRPPRLPRPRPRPEGIPRP	0.0201
RRIRQRPPRLPRPRPRPEGPPRP	0.172
RRIRQRPPRLPRPRPRPEIWPRP	0.618
RRIRQRPPRLPRPRPRPEKLPRP	-0.12
RRIRQRPPRLPRPRPRPELFPRP	-0.0927
RRIRQRPPRLPRPRPRPEMVPRP	-0.0549
RRIRQRPPRLPRPRPRPEMWPRP	0.483
RRIRQRPPRLPRPRPRPEPKPRP	0.244
RRIRQRPPRLPRPRPRPERWPRP	0.251
RRIRQRPPRLPRPRPRPESMPRP	0.00186
RRIRQRPPRLPRPRPRPEWEPRP	0.00902
RRIRQRPPRLPRPRPRPEYAPRP	-0.042
RRIRQRPPRLPRPRPRPEYEPRP	-0.157
RRIRQRPPRLPRPRPRPEYNPRP	-0.424
RRIRQRPPRLPRPRPRPFAVPRP	-0.99
RRIRQRPPRLPRPRPRPFCGPRP	0.0215
RRIRQRPPRLPRPRPRPFCKPRP	-0.0799
RRIRQRPPRLPRPRPRPFCMPRP	-0.0373
RRIRQRPPRLPRPRPRPFFDPRP	-0.0271
RRIRQRPPRLPRPRPRPFLAPRP	0.286
RRIRQRPPRLPRPRPRPFLLPRP	-0.165

Sequence	shrunken log2 fold change
RRIRQRPPRLPRPRPRPFLTPRP	-0.156
RRIRQRPPRLPRPRPRPFLWPRP	-0.0488
RRIRQRPPRLPRPRPRPFMFPRP	-0.144
RRIRQRPPRLPRPRPRPFNEPRP	-0.03
RRIRQRPPRLPRPRPRPFPMPRP	0.155
RRIRQRPPRLPRPRPRPFPPPRP	-0.0272
RRIRQRPPRLPRPRPRPFQAPRP	-0.207
RRIRQRPPRLPRPRPRPFSHPRP	-0.127
RRIRQRPPRLPRPRPRPFSPPRP	-0.0643
RRIRQRPPRLPRPRPRPFTGPRP	-0.0255
RRIRQRPPRLPRPRPRPFTTPRP	-0.0246
RRIRQRPPRLPRPRPRPFTVPRP	-0.0315
RRIRQRPPRLPRPRPRPGCKPRP	-0.0467
RRIRQRPPRLPRPRPRPGCTPRP	-0.269
RRIRQRPPRLPRPRPRPGDDPRP	0.176
RRIRQRPPRLPRPRPRPGEMPRP	0.0469
RRIRQRPPRLPRPRPRPGFHPRP	0.00101
RRIRQRPPRLPRPRPRPGFLPRP	0.107
RRIRQRPPRLPRPRPRPGGCPRP	0.546
RRIRQRPPRLPRPRPRPGGPPRP	0.0535
RRIRQRPPRLPRPRPRPGGQPRP	-0.137
RRIRQRPPRLPRPRPRPGICPRP	0.156
RRIRQRPPRLPRPRPRPGIHPRP	0.0177
RRIRQRPPRLPRPRPRPGIIPRP	0.0277
RRIRQRPPRLPRPRPRPGIWPRP	0.0216

Sequence	shrunken log2 fold change
RRIRQRPPRLPRPRPRPGKTPRP	-0.00992
RRIRQRPPRLPRPRPRPGKWPRP	0.362
RRIRQRPPRLPRPRPRPGLHPRP	-0.111
RRIRQRPPRLPRPRPRPGLRPRP	0.285
RRIRQRPPRLPRPRPRPGNCPRP	-0.0905
RRIRQRPPRLPRPRPRPGNWPRP	-0.0235
RRIRQRPPRLPRPRPRPGPFPRP	0.0672
RRIRQRPPRLPRPRPRPGPSPRP	0.242
RRIRQRPPRLPRPRPRPGQEPRP	-0.018
RRIRQRPPRLPRPRPRPGRLPRP	0.0206
RRIRQRPPRLPRPRPRPGRMPRP	0.0366
RRIRQRPPRLPRPRPRPGSAPRP	0.104
RRIRQRPPRLPRPRPRPGTDPRP	-0.0507
RRIRQRPPRLPRPRPRPGVEPRP	0.0735
RRIRQRPPRLPRPRPRPGVWPRP	0.611
RRIRQRPPRLPRPRPRPHAQPRP	0.384
RRIRQRPPRLPRPRPRPHCMPRP	-0.0175
RRIRQRPPRLPRPRPRPHDSPRP	-0.0135
RRIRQRPPRLPRPRPRPHEEPRP	-0.0442
RRIRQRPPRLPRPRPRPHHYPRP	-0.617
RRIRQRPPRLPRPRPRPHIEPRP	-0.58
RRIRQRPPRLPRPRPRPHIKPRP	-0.878
RRIRQRPPRLPRPRPRPHIWPRP	-0.333
RRIRQRPPRLPRPRPRPHNEPRP	-0.161
RRIRQRPPRLPRPRPRPHNPPRP	-0.33

Sequence	shrunken log2 fold change
RRIRQRPPRLPRPRPRPHPTPRP	-0.13
RRIRQRPPRLPRPRPRPHQCPRP	-0.401
RRIRQRPPRLPRPRPRPHQFPRP	0.0486
RRIRQRPPRLPRPRPRPHSLPRP	0.178
RRIRQRPPRLPRPRPRPHTEPRP	0.0633
RRIRQRPPRLPRPRPRPHTYPRP	-0.753
RRIRQRPPRLPRPRPRPHVDPRP	-0.088
RRIRQRPPRLPRPRPRPHYEPRP	-0.167
RRIRQRPPRLPRPRPRPIAFPRP	-0.168
RRIRQRPPRLPRPRPRPIDEPRP	3.38
RRIRQRPPRLPRPRPRPIERPRP	-0.0353
RRIRQRPPRLPRPRPRPIFCPRP	0.276
RRIRQRPPRLPRPRPRPIKQPRP	0.00621
RRIRQRPPRLPRPRPRPIKVPRP	0.0441
RRIRQRPPRLPRPRPRPILRPRP	0.034
RRIRQRPPRLPRPRPRPIMEPRP	-0.0496
RRIRQRPPRLPRPRPRPIMMPRP	-0.0173
RRIRQRPPRLPRPRPRPIMRPRP	0.0932
RRIRQRPPRLPRPRPRPINFPRP	0.0669
RRIRQRPPRLPRPRPRPINQPRP	-0.314
RRIRQRPPRLPRPRPRPIPDPRP	-0.07
RRIRQRPPRLPRPRPRPIPIPRP	-0.104
RRIRQRPPRLPRPRPRPIPQPRP	-0.0321
RRIRQRPPRLPRPRPRPIQCPRP	0.0238
RRIRQRPPRLPRPRPRPIQYPRP	-0.151

Sequence	shrunken log2 fold change
RRIRQRPPRLPRPRPRPISIPRP	-0.93
RRIRQRPPRLPRPRPRPISRPRP	-0.0404
RRIRQRPPRLPRPRPRPITCPRP	-0.0276
RRIRQRPPRLPRPRPRPIVPPRP	0.053
RRIRQRPPRLPRPRPRPKAYPRP	0.0697
RRIRQRPPRLPRPRPRPKCAPRP	0.16
RRIRQRPPRLPRPRPRPKEEPRP	0.00489
RRIRQRPPRLPRPRPRPKEKPRP	0.00902
RRIRQRPPRLPRPRPRPKEMPRP	0.229
RRIRQRPPRLPRPRPRPKEWPRP	-0.00145
RRIRQRPPRLPRPRPRPKFMPRP	-0.18
RRIRQRPPRLPRPRPRPKFYPRP	-0.206
RRIRQRPPRLPRPRPRPKGPPRP	-0.201
RRIRQRPPRLPRPRPRPKICPRP	-0.101
RRIRQRPPRLPRPRPRPKKQPRP	-0.286
RRIRQRPPRLPRPRPRPKKTPRP	-0.0104
RRIRQRPPRLPRPRPRPKMVPRP	-0.0201
RRIRQRPPRLPRPRPRPKNCPRP	-0.0633
RRIRQRPPRLPRPRPRPKNNPRP	-0.616
RRIRQRPPRLPRPRPRPKNPPRP	-0.26
RRIRQRPPRLPRPRPRPKPHPRP	0.167
RRIRQRPPRLPRPRPRPKRGPRP	0.38
RRIRQRPPRLPRPRPRPKRQPRP	0.0299
RRIRQRPPRLPRPRPRPKRYPRP	-0.138
RRIRQRPPRLPRPRPRPKVIPRP	-0.0316
